Test results from patent US20170369574A1.
Values joined by “and” are separate entries in the source; they are usually repeats but may differ in a detail not shown here. Equal entries are not always repeated.

B1: GB-H22(scFv) (scFv)
chain: HIDDDDKIIGGHEAKPHSRPYMAFLMIWDQKSLKRCGGFLIRDDFVLTAAHCWGSSINVTLGAHNIKEQEPTQQFIPVKRAIPHPAYNPKNFSNDIMLLQLERKAKRTRAVQPLRLPSNKAQVKPGQTCSVAGWGQTAPLGKHSHTLQEVKMTVQEDRKCESDLRHYYDSTIELCVGDPEIKKTSFKGDSGGPLVCNKVAQGIVSYGRNNGMPPRACTKVSSFVHWIKKTMKRYGSKLAEHEGDAAQPAMAQVQLVESGGGVVQPGRSLRLSCSSSGFIFSDNYMYWVRQAPGKGLEWVATISDGGSYTYYPDSVKGRFTISRDNSKNTLFLQMDSLRPEDTGVYFCARGYYRYEGAMDYWGQGTPVTVSSGGGGSGGGGSGGGGSDIQLTQSPSSLSASVGDRVTITCKSSQSVLYSSNQKNYLAWYQQKPGKAPKLLIYWASTRESGVPSRFSGSGSGTDFTFTISSLQPEDIATYYCHQYLSSWTFGQGTKLEIKAAAGPHHHHHH
B2: GBR201K-H22(scFv) (scFv)
chain: HIDDDDKIIGGHEAKPHSRPYMAFLMIWDQKSLKRCGGFLIRDDFVLTAAHCWGSSINVTLGAHNIKEQEPTQQFIPVKRAIPHPAYNPKNFSNDIMLLQLERKAKRTRAVQPLRLPSNKAQVKPGQTCSVAGWGQTAPLGKHSHTLQEVKMTVQEDRKCESDLRHYYDSTIELCVGDPEIKKTSFKGDSGGPLVCNKVAQGIVSYGKNNGMPPRACTKVSSFVHWIKKTMKRYAEHEGDAAQPAMAQVQLVESGGGVVQPGRSLRLSCSSSGFIFSDNYMYWVRQAPGKGLEWVATISDGGSYTYYPDSVKGRFTISRDNSKNTLFLQMDSLRPEDTGVYFCARGYYRYEGAMDYWGQGTPVTVSSGGGGSGGGGSGGGGSDIQLTQSPSSLSASVGDRVTITCKSSQSVLYSSNQKNYLAWYQQKPGKAPKLLIYWASTRESGVPSRFSGSGSGTDFTFTISSLQPEDIATYYCHQYLSSWTFGQGTKLEIKAAAGPHHHHHH

Molecular target: CD64 (FcγRI) (human) (UniProt P12314)
Chain of UniProt P12314 (P12314 16-374): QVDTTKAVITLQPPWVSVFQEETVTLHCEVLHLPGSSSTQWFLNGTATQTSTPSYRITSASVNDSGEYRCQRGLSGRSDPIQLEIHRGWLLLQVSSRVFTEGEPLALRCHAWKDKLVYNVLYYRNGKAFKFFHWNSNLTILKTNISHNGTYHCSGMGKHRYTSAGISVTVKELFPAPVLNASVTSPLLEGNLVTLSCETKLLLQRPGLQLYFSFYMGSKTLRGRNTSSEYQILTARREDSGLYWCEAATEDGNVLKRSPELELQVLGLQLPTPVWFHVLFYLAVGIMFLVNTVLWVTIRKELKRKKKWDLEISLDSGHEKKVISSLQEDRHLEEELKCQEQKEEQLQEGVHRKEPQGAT
Assay: cell-based or functional assay

Row | Molecule | IC50/EC50, XTT growth inhibition, HL-60 cells | IC50/EC50, XTT growth inhibition, U937 cells | IC50/EC50, XTT growth inhibition, hM1φ
1 | H22(scFv)-Ang | 10 nM | 0.2 nM | 0.29 nM and 0.108 nM
2 | H22(scFv)-MAP | 0.04 nM |  | 
3 | B1 |  |  | 0.414 nM and 0.14 nM
4 | B2 | 2.4 nM and 5.7 nM |  | 
